Reference: the Human Domainome abundance scans (Beltran et al. 2025)
± gives the uncertainty stated by the source.

B1: Zinc finger MYM-type protein 3, residues 589 to 668; numbered along this chain, Q14202 (parent)
chain: LSCHYCHSLFSGKPEVLDWQDQVFQFCCRDCCEDFKRLRGVVSQCEHCRQEKLLHEKLRFSGVEKSFCSEGCVLLYKQDF

Variants of: B1
Experiment: abundance fitness (aPCA) (normalised: wild type 0, dead -1); higher = more abundant; growth selection in yeast, the domain comes from the species named
Details: Homo sapiens

LSCNYCHSLFSGKPEVLDWQDQVFQFCCRDCCEDFKRLRGVVSQCEHCRQEKLLHEKLRFSGVEKSFCSEGCVLLYKQDF [H4N] and LVCHYCHSLFSGKPEVLDWQDQVFQFCCRDCCEDFKRLRGVVSQCEHCRQEKLLHEKLRFSGVEKSFCSEGCVLLYKQDF [S2V] are within error of each other in abundance fitness: 0.225 ± 0.054 for the first, 0.135 ± 0.049 for the second.

First: LNCHYCHSLFSGKPEVLDWQDQVFQFCCRDCCEDFKRLRGVVSQCEHCRQEKLLHEKLRFSGVEKSFCSEGCVLLYKQDF [S2N]
Second: LKCHYCHSLFSGKPEVLDWQDQVFQFCCRDCCEDFKRLRGVVSQCEHCRQEKLLHEKLRFSGVEKSFCSEGCVLLYKQDF [S2K]
The abundance fitness of the first is higher: 0.48 ± 0.055 for the first, 0.354 ± 0.045 for the second.

LGCHYCHSLFSGKPEVLDWQDQVFQFCCRDCCEDFKRLRGVVSQCEHCRQEKLLHEKLRFSGVEKSFCSEGCVLLYKQDF [S2G] and LACHYCHSLFSGKPEVLDWQDQVFQFCCRDCCEDFKRLRGVVSQCEHCRQEKLLHEKLRFSGVEKSFCSEGCVLLYKQDF [S2A] are within error of each other in abundance fitness: 0.157 ± 0.044 for the first, 0.106 ± 0.051 for the second.

Compared with LICHYCHSLFSGKPEVLDWQDQVFQFCCRDCCEDFKRLRGVVSQCEHCRQEKLLHEKLRFSGVEKSFCSEGCVLLYKQDF [S2I], LPCHYCHSLFSGKPEVLDWQDQVFQFCCRDCCEDFKRLRGVVSQCEHCRQEKLLHEKLRFSGVEKSFCSEGCVLLYKQDF [S2P] is lower in abundance fitness: 0.311 ± 0.069 for the first, -0.39 ± 0.061 for the second.

LECHYCHSLFSGKPEVLDWQDQVFQFCCRDCCEDFKRLRGVVSQCEHCRQEKLLHEKLRFSGVEKSFCSEGCVLLYKQDF [S2E] and LFCHYCHSLFSGKPEVLDWQDQVFQFCCRDCCEDFKRLRGVVSQCEHCRQEKLLHEKLRFSGVEKSFCSEGCVLLYKQDF [S2F] are within error of each other in abundance fitness: 0.159 ± 0.058 for the first, 0.141 ± 0.084 for the second.

Compared with LRCHYCHSLFSGKPEVLDWQDQVFQFCCRDCCEDFKRLRGVVSQCEHCRQEKLLHEKLRFSGVEKSFCSEGCVLLYKQDF [S2R], LDCHYCHSLFSGKPEVLDWQDQVFQFCCRDCCEDFKRLRGVVSQCEHCRQEKLLHEKLRFSGVEKSFCSEGCVLLYKQDF [S2D] is higher in abundance fitness: 0.12 ± 0.042 for the first, 0.412 ± 0.055 for the second.

LYCHYCHSLFSGKPEVLDWQDQVFQFCCRDCCEDFKRLRGVVSQCEHCRQEKLLHEKLRFSGVEKSFCSEGCVLLYKQDF [S2Y] and LHCHYCHSLFSGKPEVLDWQDQVFQFCCRDCCEDFKRLRGVVSQCEHCRQEKLLHEKLRFSGVEKSFCSEGCVLLYKQDF [S2H] are within error of each other in abundance fitness: 0.293 ± 0.056 for the first, 0.281 ± 0.055 for the second.

First: LWCHYCHSLFSGKPEVLDWQDQVFQFCCRDCCEDFKRLRGVVSQCEHCRQEKLLHEKLRFSGVEKSFCSEGCVLLYKQDF [S2W]
Second: LLCHYCHSLFSGKPEVLDWQDQVFQFCCRDCCEDFKRLRGVVSQCEHCRQEKLLHEKLRFSGVEKSFCSEGCVLLYKQDF [S2L]
The abundance fitness of the first is lower: -0.069 ± 0.06 for the first, 0.081 ± 0.043 for the second.

Going from LTCHYCHSLFSGKPEVLDWQDQVFQFCCRDCCEDFKRLRGVVSQCEHCRQEKLLHEKLRFSGVEKSFCSEGCVLLYKQDF [S2T] to LMCHYCHSLFSGKPEVLDWQDQVFQFCCRDCCEDFKRLRGVVSQCEHCRQEKLLHEKLRFSGVEKSFCSEGCVLLYKQDF [S2M], the abundance fitness rises from -0.051 ± 0.068 to 0.243 ± 0.051.

Going from CSCHYCHSLFSGKPEVLDWQDQVFQFCCRDCCEDFKRLRGVVSQCEHCRQEKLLHEKLRFSGVEKSFCSEGCVLLYKQDF [L1C] to NSCHYCHSLFSGKPEVLDWQDQVFQFCCRDCCEDFKRLRGVVSQCEHCRQEKLLHEKLRFSGVEKSFCSEGCVLLYKQDF [L1N], the abundance fitness rises from 0.004 ± 0.074 to 0.239 ± 0.11.

First: RSCHYCHSLFSGKPEVLDWQDQVFQFCCRDCCEDFKRLRGVVSQCEHCRQEKLLHEKLRFSGVEKSFCSEGCVLLYKQDF [L1R]
Second: WSCHYCHSLFSGKPEVLDWQDQVFQFCCRDCCEDFKRLRGVVSQCEHCRQEKLLHEKLRFSGVEKSFCSEGCVLLYKQDF [L1W]
The abundance fitness of the first is higher: -0.439 ± 0.076 for the first, -0.641 ± 0.079 for the second.

Compared with SSCHYCHSLFSGKPEVLDWQDQVFQFCCRDCCEDFKRLRGVVSQCEHCRQEKLLHEKLRFSGVEKSFCSEGCVLLYKQDF [L1S], MSCHYCHSLFSGKPEVLDWQDQVFQFCCRDCCEDFKRLRGVVSQCEHCRQEKLLHEKLRFSGVEKSFCSEGCVLLYKQDF [L1M] is higher in abundance fitness: -0.206 ± 0.056 for the first, 0.442 ± 0.06 for the second.

ESCHYCHSLFSGKPEVLDWQDQVFQFCCRDCCEDFKRLRGVVSQCEHCRQEKLLHEKLRFSGVEKSFCSEGCVLLYKQDF [L1E] and ASCHYCHSLFSGKPEVLDWQDQVFQFCCRDCCEDFKRLRGVVSQCEHCRQEKLLHEKLRFSGVEKSFCSEGCVLLYKQDF [L1A] are within error of each other in abundance fitness: 0.082 ± 0.23 for the first, -0.012 ± 0.16 for the second.

Compared with YSCHYCHSLFSGKPEVLDWQDQVFQFCCRDCCEDFKRLRGVVSQCEHCRQEKLLHEKLRFSGVEKSFCSEGCVLLYKQDF [L1Y], VSCHYCHSLFSGKPEVLDWQDQVFQFCCRDCCEDFKRLRGVVSQCEHCRQEKLLHEKLRFSGVEKSFCSEGCVLLYKQDF [L1V] is higher in abundance fitness: 0.047 ± 0.078 for the first, 0.364 ± 0.051 for the second.

Compared with ISCHYCHSLFSGKPEVLDWQDQVFQFCCRDCCEDFKRLRGVVSQCEHCRQEKLLHEKLRFSGVEKSFCSEGCVLLYKQDF [L1I], PSCHYCHSLFSGKPEVLDWQDQVFQFCCRDCCEDFKRLRGVVSQCEHCRQEKLLHEKLRFSGVEKSFCSEGCVLLYKQDF [L1P] is lower in abundance fitness: 0.363 ± 0.071 for the first, -0.436 ± 0.34 for the second.

First: FSCHYCHSLFSGKPEVLDWQDQVFQFCCRDCCEDFKRLRGVVSQCEHCRQEKLLHEKLRFSGVEKSFCSEGCVLLYKQDF [L1F]
Second: QSCHYCHSLFSGKPEVLDWQDQVFQFCCRDCCEDFKRLRGVVSQCEHCRQEKLLHEKLRFSGVEKSFCSEGCVLLYKQDF [L1Q]
The abundance fitness of the first is higher: 0.279 ± 0.073 for the first, -0.703 ± 0.35 for the second.

Compared with TSCHYCHSLFSGKPEVLDWQDQVFQFCCRDCCEDFKRLRGVVSQCEHCRQEKLLHEKLRFSGVEKSFCSEGCVLLYKQDF [L1T], GSCHYCHSLFSGKPEVLDWQDQVFQFCCRDCCEDFKRLRGVVSQCEHCRQEKLLHEKLRFSGVEKSFCSEGCVLLYKQDF [L1G] is lower in abundance fitness: 0.098 ± 0.046 for the first, -0.034 ± 0.056 for the second.

KSCHYCHSLFSGKPEVLDWQDQVFQFCCRDCCEDFKRLRGVVSQCEHCRQEKLLHEKLRFSGVEKSFCSEGCVLLYKQDF [L1K] showed an abundance fitness of 0.016 ± 0.069.
